Assay results from paper PMC3398191.

Each binder was assayed against T1, Atl1 (MBP fusion cleaved with Factor Xa) (Schizosaccharomyces pombe, UniProt Q9UTN9 1-108) (assay: EMSA).
T1 sequence: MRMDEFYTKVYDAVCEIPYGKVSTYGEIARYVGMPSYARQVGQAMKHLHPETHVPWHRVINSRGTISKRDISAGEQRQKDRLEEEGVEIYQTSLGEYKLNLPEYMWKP

Row | Binder | binding result
1 | O6-PobG 23-mer duplex (dsDNA, O6-pyridyloxobutylguanine at G6 of strand 1) DNA 1: GAACTGCAGCTCCGTGCTGGCCC DNA 2: GGGCCAGCACGGAGCTGCAGTTC | binds
2 | O6-BuG 23-mer duplex (dsDNA, O6-n-butylguanine at G6 of strand 1) DNA 1: GAACTGCAGCTCCGTGCTGGCCC DNA 2: GGGCCAGCACGGAGCTGCAGTTC | binds
3 | G control 23-mer duplex (dsDNA) DNA 1: GAACTGCAGCTCCGTGCTGGCCC DNA 2: GGGCCAGCACGGAGCTGCAGTTC | no binding
4 | O6-PrG 23-mer duplex (dsDNA, O6-n-propylguanine at G6 of strand 1) DNA 1: GAACTGCAGCTCCGTGCTGGCCC DNA 2: GGGCCAGCACGGAGCTGCAGTTC | binds
5 | O6-HOEtG 23-mer duplex (dsDNA, O6-hydroxyethylguanine at G6 of strand 1) DNA 1: GAACTGCAGCTCCGTGCTGGCCC DNA 2: GGGCCAGCACGGAGCTGCAGTTC | binds
6 | O6-MeG 23-mer duplex (dsDNA, O6-methylguanine at G6 of strand 1) DNA 1: GAACTGCAGCTCCGTGCTGGCCC DNA 2: GGGCCAGCACGGAGCTGCAGTTC | binds
7 | O6-BTG 23-mer duplex (dsDNA, O6-(4-bromothenyl)guanine at G6 of strand 1) DNA 1: GAACTGCAGCTCCGTGCTGGCCC DNA 2: GGGCCAGCACGGAGCTGCAGTTC | binds
8 | O6-BnG 23-mer duplex (dsDNA, O6-benzylguanine at G6 of strand 1) DNA 1: GAACTGCAGCTCCGTGCTGGCCC DNA 2: GGGCCAGCACGGAGCTGCAGTTC | binds
9 | O6-CMG 23-mer duplex (dsDNA, O6-carboxymethylguanine at G6 of strand 1) DNA 1: GAACTGCAGCTCCGTGCTGGCCC DNA 2: GGGCCAGCACGGAGCTGCAGTTC | binds
10 | O6-EtG 23-mer duplex (dsDNA, O6-ethylguanine at G6 of strand 1) DNA 1: GAACTGCAGCTCCGTGCTGGCCC DNA 2: GGGCCAGCACGGAGCTGCAGTTC | binds

The binders below were run against Maltose-binding protein (MBP) (UniProt P0AEX9 27-396) (assay: EMSA).

Row | Binder | binding result
11 | O6-MeG 23-mer duplex (dsDNA, O6-methylguanine at G6 of strand 1) DNA 1: GAACTGCAGCTCCGTGCTGGCCC DNA 2: GGGCCAGCACGGAGCTGCAGTTC | no binding
